In patent US20170232076A1:

Assays:
[1] = target: cation-independent mannose-6-phosphate receptor (CI-M6PR) on cells overexpressing CI-M6PR; assay: cellular uptake assay on cells overexpressing CI-M6PR, intracellular Naglu activity read-out
[2] = target: cation-independent mannose-6-phosphate receptor (CI-M6PR), as used in the in vitro receptor binding assay (ELISA); assay: in vitro CI-M6PR binding assay
[3] = target: cation-independent mannose-6-phosphate receptor (CI-M6PR), as used in the in vitro receptor binding assay (ELISA); assay: ELISA, CI-M6PR binding, detection with antibody to human Naglu

| Binder | Kd [1] [nM] | Kd [2] [nM] | Kd [3] [nM] | fold higher affinity than Naglu-SapDC produced in cells expressing Naglu-SapDC alone [1] [fold] |
| --- | --- | --- | --- | --- |
| Naglu-SapDC fusion protein produced in HT-1080 cells overexpressing GNPT (enzyme, increased M6P on N-linked glycans; M6P content 1.84 mol/mol (M6P/Protein)) DEAREAAAVRALVARLLGPGPAADFSVSVERALAAKPGLDTYSLGGGGAARVRVRGSTGVAAAAGLHRYLRDFCGCHVAWSGSQLRLPRPLPAVPGELTEATPNRYRYYQNVCTQSYSFVWWDWARWEREIDWMALNGINLALAWSGQEAIWQRVYLALGLTQAEINEFFTGPAFLAWGRMGNLHTWDGPLPPSWHIKQLYLQHRVLDQMRSFGMTPVLPAFAGHVPEAVTRVFPQVNVTKMGSWGHFNCSYSCSFLLAPEDPIFPIIGSLFLRELIKEFGTDHIYGADTFNEMQPPSSEPSYLAAATTAVYEAMTAVDTEAVWLLQGWLFQHQPQFWGPAQIRAVLGAVPRGRLLVLDLFAESQPVYTRTASFQGQPFIWCMLHNFGGNHGLFGALEAVNGGPEAARLFPNSTMVGTGMAPEGISQNEVVYSLMAELGWRKDPVPDLAAWVTSFAARRYGVSHPDAGAAWRLLLRSVYNCSGEACRGHNRSPLVRRPSLQMNTSIWYNRSDVFEAWRLLLTSAPSLATSPAFRYDLLDLTRQAVQELVSLYYEEARSAYLSKELASLLRAGGVLAYELLPALDEVLASDSRFLLGSWLEQARAAAVSEAEADFYEQNSRYQLTLWGPEGNILDYANKQLAGLVANYYTPRWRLFLEALVDSVAQGIPFQQHQFDKNVFQLEQAFVLSKQRYPSQPRGDTVDLAKKIFLKYYPRWVAGSWGAPGGGGGAAAAAGGGGGGAPGGGGGAAAAAGGGGGGAPGGGGGAAAAAGGGGGGAPDGGFCEVCKKLVGYLDRNLEKNSTKQEILAALEKGCSFLPDPYQKQCDQFVAEYEPVLIEILVEVMDPSFVCLKIGACPSAHKPLLGTEKCIWGPSYWCQNTETAAQCNAVEHCKRHVWN | 14.9 | 0.23 | – | 14 |
| Naglu-CREG fusion protein (produced in HT-1080 cells) (enzyme, N-linked glycosylation sites in the CREG part marked (N); binding is M6P-dependent) DEAREAAAVRALVARLLGPGPAADFSVSVERALAAKPGLDTYSLGGGGAARVRVRGSTGVAAAAGLHRYLRDFCGCHVAWSGSQLRLPRPLPAVPGELTEATPNRYRYYQNVCTQSYSFVWWDWARWEREIDWMALNGINLALAWSGQEAIWQRVYLALGLTQAEINEFFTGPAFLAWGRMGNLHTWDGPLPPSWHIKQLYLQHRVLDQMRSFGMTPVLPAFAGHVPEAVTRVFPQVNVTKMGSWGHFNCSYSCSFLLAPEDPIFPIIGSLFLRELIKEFGTDHIYGADTFNEMQPPSSEPSYLAAATTAVYEAMTAVDTEAVWLLQGWLFQHQPQFWGPAQIRAVLGAVPRGRLLVLDLFAESQPVYTRTASFQGQPFIWCMLHNFGGNHGLFGALEAVNGGPEAARLFPNSTMVGTGMAPEGISQNEVVYSLMAELGWRKDPVPDLAAWVTSFAARRYGVSHPDAGAAWRLLLRSVYNCSGEACRGHNRSPLVRRPSLQMNTSIWYNRSDVFEAWRLLLTSAPSLATSPAFRYDLLDLTRQAVQELVSLYYEEARSAYLSKELASLLRAGGVLAYELLPALDEVLASDSRFLLGSWLEQARAAAVSEAEADFYEQNSRYQLTLWGPEGNILDYANKQLAGLVANYYTPRWRLFLEALVDSVAQGIPFQQHQFDKNVFQLEQAFVLSKQRYPSQPRGDTVDLAKKIFLKYYPRWVAGSWGAPGGGGGAAAAAGGGGGGAPGGGGGAAAAAGGGGGGAPGGGGGAAAAAGGGGGGAPRGGRDHGDWDEASRLPPLPPREDAARVARFVTHVSDWGALATISTLEAVRGRPFADVLSLSDGPPGAGSGVPYFYLSPLQLSVSNLQENPYATLTMTLAQTNFCKKHGFPLCVHIMLSGTVTKVNETEMDIAKHSLFIRHPEMKTWPSSHNWFFAKLNITNIWVLDYFGGPKIVTPEEYYNVTVQ | – | 2.5 | 1.25 | – |

Results, then the binder that gave them:

| Kd [1] [nM] | Kd [2] [nM] | Kd [3] [nM] | fold higher affinity than Naglu-SapDC produced in cells expressing Naglu-SapDC alone [1] [fold] | Binder |
| --- | --- | --- | --- | --- |
| 209 | 2.9 | 5.5 | – | Naglu-SapDC fusion protein (produced in HT-1080 cells) (enzyme, N-linked glycosylation site in the SapDC part marked (N); M6P content 0.75 mol/mol (M6P/Protein)) DEAREAAAVRALVARLLGPGPAADFSVSVERALAAKPGLDTYSLGGGGAARVRVRGSTGVAAAAGLHRYLRDFCGCHVAWSGSQLRLPRPLPAVPGELTEATPNRYRYYQNVCTQSYSFVWWDWARWEREIDWMALNGINLALAWSGQEAIWQRVYLALGLTQAEINEFFTGPAFLAWGRMGNLHTWDGPLPPSWHIKQLYLQHRVLDQMRSFGMTPVLPAFAGHVPEAVTRVFPQVNVTKMGSWGHFNCSYSCSFLLAPEDPIFPIIGSLFLRELIKEFGTDHIYGADTFNEMQPPSSEPSYLAAATTAVYEAMTAVDTEAVWLLQGWLFQHQPQFWGPAQIRAVLGAVPRGRLLVLDLFAESQPVYTRTASFQGQPFIWCMLHNFGGNHGLFGALEAVNGGPEAARLFPNSTMVGTGMAPEGISQNEVVYSLMAELGWRKDPVPDLAAWVTSFAARRYGVSHPDAGAAWRLLLRSVYNCSGEACRGHNRSPLVRRPSLQMNTSIWYNRSDVFEAWRLLLTSAPSLATSPAFRYDLLDLTRQAVQELVSLYYEEARSAYLSKELASLLRAGGVLAYELLPALDEVLASDSRFLLGSWLEQARAAAVSEAEADFYEQNSRYQLTLWGPEGNILDYANKQLAGLVANYYTPRWRLFLEALVDSVAQGIPFQQHQFDKNVFQLEQAFVLSKQRYPSQPRGDTVDLAKKIFLKYYPRWVAGSWGAPGGGGGAAAAAGGGGGGAPGGGGGAAAAAGGGGGGAPGGGGGAAAAAGGGGGGAPDGGFCEVCKKLVGYLDRNLEKNSTKQEILAALEKGCSFLPDPYQKQCDQFVAEYEPVLIEILVEVMDPSFVCLKIGACPSAHKPLLGTEKCIWGPSYWCQNTETAAQCNAVEHCKRHVWN |
| – | 0.41 | – | – | Naglu-CREG fusion protein produced in HT-1080 cells overexpressing GNPT (enzyme, increased M6P on N-linked glycans (co-expression with GNPT)) DEAREAAAVRALVARLLGPGPAADFSVSVERALAAKPGLDTYSLGGGGAARVRVRGSTGVAAAAGLHRYLRDFCGCHVAWSGSQLRLPRPLPAVPGELTEATPNRYRYYQNVCTQSYSFVWWDWARWEREIDWMALNGINLALAWSGQEAIWQRVYLALGLTQAEINEFFTGPAFLAWGRMGNLHTWDGPLPPSWHIKQLYLQHRVLDQMRSFGMTPVLPAFAGHVPEAVTRVFPQVNVTKMGSWGHFNCSYSCSFLLAPEDPIFPIIGSLFLRELIKEFGTDHIYGADTFNEMQPPSSEPSYLAAATTAVYEAMTAVDTEAVWLLQGWLFQHQPQFWGPAQIRAVLGAVPRGRLLVLDLFAESQPVYTRTASFQGQPFIWCMLHNFGGNHGLFGALEAVNGGPEAARLFPNSTMVGTGMAPEGISQNEVVYSLMAELGWRKDPVPDLAAWVTSFAARRYGVSHPDAGAAWRLLLRSVYNCSGEACRGHNRSPLVRRPSLQMNTSIWYNRSDVFEAWRLLLTSAPSLATSPAFRYDLLDLTRQAVQELVSLYYEEARSAYLSKELASLLRAGGVLAYELLPALDEVLASDSRFLLGSWLEQARAAAVSEAEADFYEQNSRYQLTLWGPEGNILDYANKQLAGLVANYYTPRWRLFLEALVDSVAQGIPFQQHQFDKNVFQLEQAFVLSKQRYPSQPRGDTVDLAKKIFLKYYPRWVAGSWGAPGGGGGAAAAAGGGGGGAPGGGGGAAAAAGGGGGGAPGGGGGAAAAAGGGGGGAPRGGRDHGDWDEASRLPPLPPREDAARVARFVTHVSDWGALATISTLEAVRGRPFADVLSLSDGPPGAGSGVPYFYLSPLQLSVSNLQENPYATLTMTLAQTNFCKKHGFPLCVHIMLSGTVTKVNETEMDIAKHSLFIRHPEMKTWPSSHNWFFAKLNITNIWVLDYFGGPKIVTPEEYYNVTVQ |
